Assay results published in PMC5264588, “ER residency of the ceramide phosphoethanolamine synthase SMSr relies on homotypic oligomerization mediated by its SAM domain” (Scientific Reports, 2017).
Values joined by “and” are separate entries in the source; they are usually repeats but may differ in a detail not shown here. Equal entries are not always repeated.

B1: V5/His6-tagged SMSr (enzyme, human, UniProt Q96LT4 1-415, looked up)
chain: MAGPNQLCIRRWTTKHVAVWLKDEGFFEYVDILCNKHRLDGITLLTLTEYDLRSPPLEIKVLGDIKRLMLSVRKLQKIHIDVLEEMGYNSDSPMGSMTPFISALQSTDWLCNGELSHDCDGPITDLNSDQYQYMNGKNKHSVRRLDPEYWKTILSCIYVFIVFGFTSFIMVIVHERVPDMQTYPPLPDIFLDSVPRIPWAFAMTEVCGMILCYIWLLVLLLHKHRSILLRRLCSLMGTVFLLRCFTMFVTSLSVPGQHLQCTGKIYGSVWEKLHRAFAIWSGFGMTLTGVHTCGDYMFSGHTVVLTMLNFFVTEYTPRSWNFLHTLSWVLNLFGIFFILAAHEHYSIDVFIAFYITTRLFLYYHTLANTRAYQQSRRARIWFPMFSFFECNVNGTVPNEYCWPFSKPAIMKRLIG
notes: SMSr (SAMD8), ceramide phosphoethanolamine synthase, human, UniProt Q96LT4; the cDNA was PCR amplified and cloned with a C-terminal V5/His6 tag; also called SMSr-V5; SAMD8; source: HeLa, transfected (pcDNA3.1/V5-His TOPO), in detergent extract; not shown: V5, C-terminal, kept; His6, C-terminal, kept

How the values were obtained:
[1] = target: the molecule itself; test: SDS-resistant oligomers on SDS-PAGE of affinity-purified protein; HeLa cells transfected with one V5(/His6)-tagged construct; anti-V5 immunoprecipitates or Ni-NTA eluates, non-reducing SDS-PAGE, anti-V5 immunoblot; no cross-linker; oligomers mostly lost with 10 mM NEM in lysis or 100 mM DTT
V5/His6-tagged SMSr = target: B1; test: co-IP; detergent extracts of HeLa cells co-transfected with HA-tagged and V5/His6-tagged constructs; anti-V5 immunoprecipitation, immunoblot with anti-V5 and anti-HA; non-reducing SDS-PAGE; no NEM named; conditions: partners not purified
[2] = target: the molecule itself; test: cross-linking; intact HeLa cells (wild-type or SMSr-/-) treated with DSP (0-50 μM, 15 min, RT), lysed with detergent and 10 mM NEM; anti-HA or anti-V5 immunoprecipitation or Ni-NTA, immunoblot against the same tag
[3] = target: the molecule itself; test: cross-linking; yeast cells expressing V5/His6-tagged SMSr treated with DSP (0-50 μM, 15 min), lysed, anti-V5 immunoblot

Binder	stoichiometry N [2]	other results
B1		stoichiometry N [1]: 3 and 6
HA-tagged SMSr (enzyme, human, UniProt Q96LT4 1-415, looked up, SMSr (SAMD8), ceramide phosphoethanolamine synthase, human, UniProt Q96LT4; also called SMSr-HA; full-length SMSr-HA; source: HeLa (wild-type or SMSr-/-), transfected, in detergent extract; not shown: HA, C-terminal, kept) MAGPNQLCIRRWTTKHVAVWLKDEGFFEYVDILCNKHRLDGITLLTLTEYDLRSPPLEIKVLGDIKRLMLSVRKLQKIHIDVLEEMGYNSDSPMGSMTPFISALQSTDWLCNGELSHDCDGPITDLNSDQYQYMNGKNKHSVRRLDPEYWKTILSCIYVFIVFGFTSFIMVIVHERVPDMQTYPPLPDIFLDSVPRIPWAFAMTEVCGMILCYIWLLVLLLHKHRSILLRRLCSLMGTVFLLRCFTMFVTSLSVPGQHLQCTGKIYGSVWEKLHRAFAIWSGFGMTLTGVHTCGDYMFSGHTVVLTMLNFFVTEYTPRSWNFLHTLSWVLNLFGIFFILAAHEHYSIDVFIAFYITTRLFLYYHTLANTRAYQQSRRARIWFPMFSFFECNVNGTVPNEYCWPFSKPAIMKRLIG	3 and 6	stoichiometry N (V5/His6-tagged SMSr): 3 and 6
V5/His6-tagged SMSrΔSAM (domain or fragment, human, UniProt Q96LT4 79-415, looked up, SMSr (SAMD8), human, UniProt Q96LT4, without the first 78 N-terminal residues (SAM domain deleted); also called SMSrΔSAM-V5; SAM-domain truncation mutant; source: HeLa, transfected, in detergent extract; not shown: V5, C-terminal, kept; His6, C-terminal, kept) HIDVLEEMGYNSDSPMGSMTPFISALQSTDWLCNGELSHDCDGPITDLNSDQYQYMNGKNKHSVRRLDPEYWKTILSCIYVFIVFGFTSFIMVIVHERVPDMQTYPPLPDIFLDSVPRIPWAFAMTEVCGMILCYIWLLVLLLHKHRSILLRRLCSLMGTVFLLRCFTMFVTSLSVPGQHLQCTGKIYGSVWEKLHRAFAIWSGFGMTLTGVHTCGDYMFSGHTVVLTMLNFFVTEYTPRSWNFLHTLSWVLNLFGIFFILAAHEHYSIDVFIAFYITTRLFLYYHTLANTRAYQQSRRARIWFPMFSFFECNVNGTVPNEYCWPFSKPAIMKRLIG	2	
HA-tagged SMSr^L62E/G63D/K66E (SMSr^OD) (enzyme, human, UniProt Q96LT4 1-415, looked up, SMSr (SAMD8), human, UniProt Q96LT4, with L62E, G63D and K66E; also called oligomerization-defective triple mutant; source: HeLa (wild-type or SMSr-/-), transfected, in detergent extract; not shown: HA, C-terminal, kept) MAGPNQLCIRRWTTKHVAVWLKDEGFFEYVDILCNKHRLDGITLLTLTEYDLRSPPLEIKVEDDIERLMLSVRKLQKIHIDVLEEMGYNSDSPMGSMTPFISALQSTDWLCNGELSHDCDGPITDLNSDQYQYMNGKNKHSVRRLDPEYWKTILSCIYVFIVFGFTSFIMVIVHERVPDMQTYPPLPDIFLDSVPRIPWAFAMTEVCGMILCYIWLLVLLLHKHRSILLRRLCSLMGTVFLLRCFTMFVTSLSVPGQHLQCTGKIYGSVWEKLHRAFAIWSGFGMTLTGVHTCGDYMFSGHTVVLTMLNFFVTEYTPRSWNFLHTLSWVLNLFGIFFILAAHEHYSIDVFIAFYITTRLFLYYHTLANTRAYQQSRRARIWFPMFSFFECNVNGTVPNEYCWPFSKPAIMKRLIG	6 and 3 and 2	
HA-tagged SMSr^D348E (enzyme, human, UniProt Q96LT4 1-415, looked up, SMSr (SAMD8), human, UniProt Q96LT4, with D348E; also called enzyme-dead SMSr; source: SMSr-/- HeLa, transfected, in detergent extract; not shown: HA, C-terminal, kept) MAGPNQLCIRRWTTKHVAVWLKDEGFFEYVDILCNKHRLDGITLLTLTEYDLRSPPLEIKVLGDIKRLMLSVRKLQKIHIDVLEEMGYNSDSPMGSMTPFISALQSTDWLCNGELSHDCDGPITDLNSDQYQYMNGKNKHSVRRLDPEYWKTILSCIYVFIVFGFTSFIMVIVHERVPDMQTYPPLPDIFLDSVPRIPWAFAMTEVCGMILCYIWLLVLLLHKHRSILLRRLCSLMGTVFLLRCFTMFVTSLSVPGQHLQCTGKIYGSVWEKLHRAFAIWSGFGMTLTGVHTCGDYMFSGHTVVLTMLNFFVTEYTPRSWNFLHTLSWVLNLFGIFFILAAHEHYSIEVFIAFYITTRLFLYYHTLANTRAYQQSRRARIWFPMFSFFECNVNGTVPNEYCWPFSKPAIMKRLIG	6 and 3	
V5/His6-tagged SMSr expressed in yeast (enzyme, human, UniProt Q96LT4 1-415, looked up, SMSr (SAMD8), human, UniProt Q96LT4; also called SMSr-V5; pYES2.1/SMSr-V5-His TOPO; source: Saccharomyces cerevisiae IAY11, transformed (pYES2.1/SMSr-V5-His TOPO), in lysate) MAGPNQLCIRRWTTKHVAVWLKDEGFFEYVDILCNKHRLDGITLLTLTEYDLRSPPLEIKVLGDIKRLMLSVRKLQKIHIDVLEEMGYNSDSPMGSMTPFISALQSTDWLCNGELSHDCDGPITDLNSDQYQYMNGKNKHSVRRLDPEYWKTILSCIYVFIVFGFTSFIMVIVHERVPDMQTYPPLPDIFLDSVPRIPWAFAMTEVCGMILCYIWLLVLLLHKHRSILLRRLCSLMGTVFLLRCFTMFVTSLSVPGQHLQCTGKIYGSVWEKLHRAFAIWSGFGMTLTGVHTCGDYMFSGHTVVLTMLNFFVTEYTPRSWNFLHTLSWVLNLFGIFFILAAHEHYSIDVFIAFYITTRLFLYYHTLANTRAYQQSRRARIWFPMFSFFECNVNGTVPNEYCWPFSKPAIMKRLIG		stoichiometry N [3]: 3 and 6
